Results: PMC5766609 (Scientific Reports, 2018)
Starred links: 1 amine or outer side, 2 acyl side, 3 side chain; linkers in the order of their positions; H or OH if unused. Non-standard residues stand in square brackets, D forms with d. Residues, ends and D or L forms follow the SMILES beside them. Groups on a side chain read outwards from the residue. No end group written: not given here. *: point of attachment. γGlu = O=C(O)[C@H](CCC(=O)[*:2])N[*:1]; Palmitoyl = CCCCCCCCCCCCCCCC(=O)*

Tests used:
[1] = target: T1, human GLP-1 receptor (GLP1R) (Homo sapiens, UniProt P43220); assay: cAMP assay on CHO-JumpIn cells stably transfected with human GLP-1 receptor (HitHunter cAMP); format: cell-based; conditions: Table 2, cAMP accumulation, buffer PBS, 0.1% BSA, 100 μM RO 20-1724, 20% serum, 1 hr at RT, value ± spread, read-out: EC50 GLP1R;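 also: peptides tested as 4-fold serial dilution series, cells exposed 1 hr at RT in the dark, cAMP quantified against a cAMP standard calibration curve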
T1 construct: expressed in transfected cells; host or cells: CHO-JumpIn cells, stably transfected
T1 sequence (P43220 24-463): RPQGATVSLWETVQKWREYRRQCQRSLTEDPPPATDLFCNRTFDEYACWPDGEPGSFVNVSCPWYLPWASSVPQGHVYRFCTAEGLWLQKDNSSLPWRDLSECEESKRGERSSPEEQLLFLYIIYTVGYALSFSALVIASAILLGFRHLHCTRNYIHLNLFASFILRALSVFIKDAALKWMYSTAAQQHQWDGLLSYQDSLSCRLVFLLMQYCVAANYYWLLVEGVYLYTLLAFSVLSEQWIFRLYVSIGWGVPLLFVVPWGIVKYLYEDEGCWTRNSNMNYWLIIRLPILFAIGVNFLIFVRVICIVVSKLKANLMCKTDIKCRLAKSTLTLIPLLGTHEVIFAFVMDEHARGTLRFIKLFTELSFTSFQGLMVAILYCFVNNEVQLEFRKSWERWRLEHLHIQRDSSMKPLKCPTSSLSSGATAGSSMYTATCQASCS
Protocol: (§1) Briefly, a 2 μM solution of peptide was prepared, and 4-fold serial dilutions were made. 150 nL of the above titration was then dispensed into an Optiplate384 using an Echo555. […] The HitHunter® cAMP Assay kit calibration curve was prepared following the manufacturer’s protocol (DiscoveRx-90-0075L). 30,000 cells/well were added to the peptides, spun briefly at 500 rpm for 15 s and incubated at RT in the dark for 1 hr. The assay was developed as per the manufacturer’s instructions. cAMP accumulation due to GLP1R agonism or GCGR agonism was measured using an EnVision platereader (PerkinElmer), and calibrated using the cAMP standard curve. Data were analyzed using Assay Data Analyzer (ADA).

[2] = target: T2, human glucagon receptor (GCGR) (Homo sapiens, UniProt P47871); assay: cAMP assay on CHO-JumpIn cells stably transfected with human glucagon receptor (HitHunter cAMP); format: cell-based; conditions: Table 2; cAMP accumulation, CHO-JumpIn cells with human GCGR, buffer PBS, 0.1% BSA, 100 μM RO 20-1724, 20% serum; 1 hr at RT; value ± spread; read-out: EC50 GCGR;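 also: peptides tested as 4-fold serial dilutions starting from a 2 µM solution, cells exposed 1 hr at RT in darkness, cAMP quantified against a cAMP standard curve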
T2 construct: expressed in transfected cells; host or cells: CHO-JumpIn cells, stably transfected
T2 sequence (P47871 26-477): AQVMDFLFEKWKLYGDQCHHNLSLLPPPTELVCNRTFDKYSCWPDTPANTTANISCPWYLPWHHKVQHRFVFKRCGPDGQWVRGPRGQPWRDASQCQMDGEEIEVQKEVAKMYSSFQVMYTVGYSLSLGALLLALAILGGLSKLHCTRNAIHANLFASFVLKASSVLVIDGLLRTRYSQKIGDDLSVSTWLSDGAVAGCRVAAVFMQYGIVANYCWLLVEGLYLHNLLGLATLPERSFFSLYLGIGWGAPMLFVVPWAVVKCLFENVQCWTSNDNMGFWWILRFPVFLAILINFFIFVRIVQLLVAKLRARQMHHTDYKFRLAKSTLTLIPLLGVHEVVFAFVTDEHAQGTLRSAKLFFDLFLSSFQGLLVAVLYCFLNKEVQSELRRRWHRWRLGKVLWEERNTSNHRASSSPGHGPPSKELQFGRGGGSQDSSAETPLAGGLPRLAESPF
Protocol: as §1

[3] = target: glucagon receptor (human) (UniProt P47871)
Sequence of glucagon receptor (human) (P47871 26-477): as above

[4] = target: human GLP-1 receptor (human) (UniProt P43220)
Sequence of human GLP-1 receptor (human) (P43220 24-463): as the sequence (P43220 24-463) above

[5] = target: glucagon receptor (human) (UniProt P47871); remark: listed apart in the source
[6] = target: human GLP-1 receptor (human) (UniProt P43220); remark: listed apart in the source

Row | EC50 GCGR (nM); cAMP assay on CHO-JumpIn cells with human GCGR [3] | EC50 GLP1R (nM); cAMP assay on CHO-JumpIn cells with human GLP1R [4] | Molecule | other results
1 | – | – | CC(C)C[C@H](NC(=O)[C@H](Cc1ccc(O)cc1)NC(=O)[C@H](CCCCN)NC(=O)[C@H](CO)NC(=O)[C@H](Cc1ccc(O)cc1)NC(=O)[C@H](CC(=O)O)NC(=O)[C@H](CO)NC(=O)[C@@H](NC(=O)[C@H](Cc1ccccc1)NC(=O)[C@@H](NC(=O)CNC(=O)[C@H](CCC(N)=O)NC(=O)[C@H](CO)NC(=O)[C@@H](N)Cc1c[nH]cn1)[C@@H](C)O)[C@@H](C)O)C(=O)N[C@@H](CC(=O)O)C(=O)N[C@@H](CO)C(=O)N[C@@H](CCCNC(=N)N)C(=O)N[C@@H](CCCNC(=N)N)C(=O)N[C@@H](C)C(=O)N[C@@H](Cc1c[nH]cn1)C(=O)N[C@@H](CC(=O)O)C(=O)N[C@@H](Cc1ccccc1)C(=O)N[C@H](C(=O)N[C@@H](CCC(N)=O)C(=O)N[C@@H](Cc1c[nH]c2ccccc12)C(=O)N[C@@H](CC(C)C)C(=O)N[C@@H](CC(C)C)C(=O)N[C@@H](CC(N)=O)C(=O)N[C@H](C(N)=O)[C@@H](C)O)C(C)C [Peptide 11] (H-HSQGTFTSDYSKYLDSRRAHDFVQWLLNT-NH2) | EC50 [1]: 0.018 ± 0.001 nM; EC50 [2]: 0.018 ± 0.005 nM
2 | – | – | CC[C@H](C)[C@H](NC(=O)[C@H](Cc1ccc(O)cc1)NC(=O)[C@H](CC(=O)O)NC(=O)[C@H](CO)NC(=O)[C@@H](NC(=O)[C@H](Cc1ccccc1)NC(=O)[C@@H](NC(=O)CNC(=O)[C@H](CCC(N)=O)NC(=O)[C@H](CO)NC(=O)[C@@H](N)Cc1c[nH]cn1)[C@@H](C)O)[C@@H](C)O)C(=O)N[C@@H](CCCCN)C(=O)N[C@@H](CC(C)C)C(=O)N[C@@H](CC(C)C)C(=O)N[C@@H](CC(=O)O)C(=O)N[C@@H](CO)C(=O)N[C@@H](CCCNC(=N)N)C(=O)N[C@@H](CCCNC(=N)N)C(=O)N[C@@H](C)C(=O)N[C@@H](CCC(N)=O)C(=O)N[C@@H](CC(=O)O)C(=O)N[C@@H](Cc1ccccc1)C(=O)N[C@H](C(=O)N[C@@H](CCC(N)=O)C(=O)N[C@@H](Cc1c[nH]c2ccccc12)C(=O)N[C@@H](CC(C)C)C(=O)N[C@@H](CCSC)C(=O)N[C@@H](CC(N)=O)C(=O)N[C@H](C(N)=O)[C@@H](C)O)C(C)C [Peptide 7] (H-HSQGTFTSDYIKLLDSRRAQDFVQWLMNT-NH2) | EC50 [1]: 78.3 ± 93.8 nM; EC50 [2]: 0.301 ± 0.216 nM
3 | – | – | CC[C@H](C)[C@H](NC(=O)[C@H](CC(C)C)NC(=O)[C@H](Cc1c[nH]c2ccccc12)NC(=O)[C@H](CC(=O)O)NC(=O)[C@@H](NC(=O)[C@H](Cc1ccccc1)NC(=O)[C@H](CC(=O)O)NC(=O)[C@H](CCC(N)=O)NC(=O)[C@H](C)NC(=O)[C@H](CCCNC(=N)N)NC(=O)[C@H](CCCNC(=N)N)NC(=O)[C@H](CO)NC(=O)[C@H](CC(=O)O)NC(=O)[C@H](CC(C)C)NC(=O)[C@H](Cc1ccc(O)cc1)NC(=O)[C@H](CCCCN)NC(=O)[C@H](CO)NC(=O)[C@H](Cc1ccc(O)cc1)NC(=O)[C@H](CC(=O)O)NC(=O)[C@H](CO)NC(=O)[C@@H](NC(=O)[C@H](Cc1ccccc1)NC(=O)[C@@H](NC(=O)CNC(=O)[C@H](CCC(N)=O)NC(=O)[C@H](CO)NC(=O)[C@@H](N)Cc1c[nH]cn1)[C@@H](C)O)[C@@H](C)O)C(C)C)C(=O)N[C@@H](CC(N)=O)C(=O)N[C@@H](CO)C(N)=O [Peptide 28] | EC50 [1]: 0.007 ± 0.001 nM; EC50 [2]: 0.016 ± 0.001 nM
4 | 0.079 nM | 0.059 nM | HSQGTFTSDYSKYLDSRMAYDFVQWLMNT-NH2 [Peptide 33] | –
5 | – | > 200 nM | ASMFTFFSDYSKYLDSRRAQDFVQWLMLT-NH2 [Peptide 15] | –
6 | 0.018 nM | 0.018 nM | HSQGTFTSDYSKYLDSRRAHDFVQWLLNT-NH2 [Peptide 11] | –
7 | 2.6 nM | 16.7 nM | INHEQWAFTSDYSKYLDSRRAQDFVQWLMNT-NH2 [Peptide 14] | –
8 | 1.35 nM | 0.427 nM | HSQGTFTSDYRKYLDERAAWDFVQWLMNT-NH2 [Peptide 3] | –
9 | 0.0019 nM | 0.018 nM | HSQGTFTSDYSKYLDSRRAQDFVQWLLDS-NH2 [Peptide 35] | –
10 | 0.301 nM | 78.3 nM | HSQGTFTSDYIKLLDSRRAQDFVQWLMNT-NH2 [Peptide 7] | –
11 | 8.45 nM | 16.7 nM | HSVGNFWSDYSKYLDSRRAQDFVQWLMLT-NH2 [Peptide 1] | –
12 | 0.026 nM | 0.018 nM | HSQGTFTSDYSKYLDSKRAHDFVQWLLNT-NH2 [Peptide 24] | –
13 | 0.025 nM | 0.133 nM | HSQGTFTSDYSKYLDSLMAQDFVQWLMST-NH2 [Peptide 5] | –
14 | 0.078 nM | 0.039 nM | HSQGTFTSDYSKYLDSRRAQDFVQWLINY-NH2 [Peptide 13] | –
15 | 0.037 nM | 0.056 nM | HSQGTFTSDYSKYLDSIRAQDFVQWLMDT-NH2 [Peptide 18] | –
16 | 0.027 nM | 51.9 nM | HSQGTFFSDYSKYLDSRRAQDFVQWLLET-NH2 [Peptide 34] | –
17 | 0.026 nM | > 200 nM | HSQGIFFSDYSKYLDSRRAQDFVQWLMNT-NH2 [Peptide 30] | –
18 | 2.24 nM | 0.184 nM | HSQGTFTSDYSKYVEDRRAHDFVQWLMNT-NH2 [Peptide 2] | –
19 | > 200 nM | 8.96 nM | HSQGTFTSDYSKYLDSRRAQDFVMTSMNT-NH2 [Peptide 26] | –
20 | – | – | H[dS]QGTFTSDK([γGlu-γGlu-Palmitoyl])SKYLDSRRAHDFVQWLLNT-NH2 (N-terminus assumed; SMILES CCCCCCCCCCCCCCCC(=O)N[C@@H](CCC(=O)N[C@@H](CCC(=O)NCCCC[C@H](NC(=O)[C@H](CC(=O)O)NC(=O)[C@H](CO)NC(=O)[C@@H](NC(=O)[C@H](Cc1ccccc1)NC(=O)[C@@H](NC(=O)CNC(=O)[C@H](CCC(N)=O)NC(=O)[C@@H](CO)NC(=O)[C@@H](N)Cc1c[nH]cn1)[C@@H](C)O)[C@@H](C)O)C(=O)N[C@@H](CO)C(=O)N[C@@H](CCCCN)C(=O)N[C@@H](Cc1ccc(O)cc1)C(=O)N[C@@H](CC(C)C)C(=O)N[C@@H](CC(=O)O)C(=O)N[C@@H](CO)C(=O)N[C@@H](CCCNC(=N)N)C(=O)N[C@@H](CCCNC(=N)N)C(=O)N[C@@H](C)C(=O)N[C@@H](Cc1c[nH]cn1)C(=O)N[C@@H](CC(=O)O)C(=O)N[C@@H](Cc1ccccc1)C(=O)N[C@H](C(=O)N[C@@H](CCC(N)=O)C(=O)N[C@@H](Cc1c[nH]c2ccccc12)C(=O)N[C@@H](CC(C)C)C(=O)N[C@@H](CC(C)C)C(=O)N[C@@H](CC(N)=O)C(=O)N[C@H](C(N)=O)[C@@H](C)O)C(C)C)C(=O)O)C(=O)O) [Peptide 36] | EC50 hGCGR (nM); cAMP assay on CHO-JumpIn cells with human GCGR [5]: 0.023 nM; EC50 hGLP1 (nM); cAMP assay on CHO-JumpIn cells with human GLP1R [6]: 0.05 nM
21 | 0.527 nM | > 200 nM | HSQGTFLHDYYYYLDSRRAQDFVQWLMDT-NH2 [Peptide 17] | –
22 | 0.057 nM | 0.038 nM | HSQGTFTSDYSKYLDELRAYDFVQWLMNT-NH2 [Peptide 10] | –
23 | 4.18 nM | 14.8 nM | KALGQFTFTSDYSKYLDSRRAQDFVQWLMNT-NH2 [Peptide 21] | –
24 | 0.026 nM | 1.33 nM | HSQGTFTSDYSKYLDIGRAQDFVQWLLNT-NH2 [Peptide 4] | –
25 | 0.016 nM | 0.007 nM | HSQGTFTSDYSKYLDSRRAQDFVDWLINS-NH2 [Peptide 28] | –
